IntAct's records for PubMed 20562859

Experiments:
daaf4_human DNAAF4 = molecular target: T1, daaf4_human DNAAF4 (UniProt Q8WXU2)
T1 sequence: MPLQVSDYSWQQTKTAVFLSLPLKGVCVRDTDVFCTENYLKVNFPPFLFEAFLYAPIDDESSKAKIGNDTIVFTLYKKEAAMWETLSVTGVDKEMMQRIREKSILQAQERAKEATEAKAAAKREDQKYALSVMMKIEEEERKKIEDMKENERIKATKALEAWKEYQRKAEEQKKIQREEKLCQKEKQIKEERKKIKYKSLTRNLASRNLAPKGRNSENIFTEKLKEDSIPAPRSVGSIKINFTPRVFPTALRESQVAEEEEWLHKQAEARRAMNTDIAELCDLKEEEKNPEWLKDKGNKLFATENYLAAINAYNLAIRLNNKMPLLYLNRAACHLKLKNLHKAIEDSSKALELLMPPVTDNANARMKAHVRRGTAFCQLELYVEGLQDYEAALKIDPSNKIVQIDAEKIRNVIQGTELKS

fyco1_human FYCO1 = molecular target: T2, fyco1_human FYCO1 (UniProt Q9BQS8)
T2 sequence: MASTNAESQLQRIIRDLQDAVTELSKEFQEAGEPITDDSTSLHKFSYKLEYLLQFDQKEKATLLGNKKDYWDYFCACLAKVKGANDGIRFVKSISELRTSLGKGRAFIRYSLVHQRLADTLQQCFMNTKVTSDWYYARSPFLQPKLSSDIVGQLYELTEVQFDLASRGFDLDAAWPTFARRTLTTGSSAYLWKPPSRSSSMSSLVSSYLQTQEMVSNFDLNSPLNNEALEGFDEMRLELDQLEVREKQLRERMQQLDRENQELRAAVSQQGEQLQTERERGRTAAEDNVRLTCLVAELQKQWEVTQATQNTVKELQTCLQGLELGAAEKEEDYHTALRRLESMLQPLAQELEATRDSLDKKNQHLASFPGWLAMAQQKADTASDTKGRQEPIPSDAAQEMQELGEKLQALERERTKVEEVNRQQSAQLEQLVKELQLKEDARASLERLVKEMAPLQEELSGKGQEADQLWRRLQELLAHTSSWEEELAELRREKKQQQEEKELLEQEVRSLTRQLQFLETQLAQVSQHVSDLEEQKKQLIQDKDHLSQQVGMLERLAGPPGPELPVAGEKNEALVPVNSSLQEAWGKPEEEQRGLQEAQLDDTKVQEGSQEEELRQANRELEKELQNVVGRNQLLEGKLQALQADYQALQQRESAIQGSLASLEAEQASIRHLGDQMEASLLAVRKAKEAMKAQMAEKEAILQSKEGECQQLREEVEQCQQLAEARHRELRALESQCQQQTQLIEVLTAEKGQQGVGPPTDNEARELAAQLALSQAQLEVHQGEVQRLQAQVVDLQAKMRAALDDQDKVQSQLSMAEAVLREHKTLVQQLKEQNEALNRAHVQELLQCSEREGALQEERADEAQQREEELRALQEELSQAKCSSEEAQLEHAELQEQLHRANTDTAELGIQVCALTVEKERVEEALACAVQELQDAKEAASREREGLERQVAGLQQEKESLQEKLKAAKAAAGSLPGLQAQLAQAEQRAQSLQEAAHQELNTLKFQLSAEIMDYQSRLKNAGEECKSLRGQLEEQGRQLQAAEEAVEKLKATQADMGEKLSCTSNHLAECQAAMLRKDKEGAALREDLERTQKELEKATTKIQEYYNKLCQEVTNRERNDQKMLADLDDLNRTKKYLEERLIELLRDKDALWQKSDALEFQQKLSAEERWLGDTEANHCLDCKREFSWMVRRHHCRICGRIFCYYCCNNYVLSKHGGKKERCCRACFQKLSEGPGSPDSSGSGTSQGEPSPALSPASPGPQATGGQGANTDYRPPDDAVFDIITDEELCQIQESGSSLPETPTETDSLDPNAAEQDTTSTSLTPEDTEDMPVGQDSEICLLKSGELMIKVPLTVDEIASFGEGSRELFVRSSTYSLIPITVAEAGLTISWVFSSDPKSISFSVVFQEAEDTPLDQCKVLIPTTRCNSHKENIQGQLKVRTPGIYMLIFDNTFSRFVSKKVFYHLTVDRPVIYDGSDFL

ulk1_human ULK1 = molecular target: T3, ulk1_human ULK1 (UniProt O75385)
T3 sequence: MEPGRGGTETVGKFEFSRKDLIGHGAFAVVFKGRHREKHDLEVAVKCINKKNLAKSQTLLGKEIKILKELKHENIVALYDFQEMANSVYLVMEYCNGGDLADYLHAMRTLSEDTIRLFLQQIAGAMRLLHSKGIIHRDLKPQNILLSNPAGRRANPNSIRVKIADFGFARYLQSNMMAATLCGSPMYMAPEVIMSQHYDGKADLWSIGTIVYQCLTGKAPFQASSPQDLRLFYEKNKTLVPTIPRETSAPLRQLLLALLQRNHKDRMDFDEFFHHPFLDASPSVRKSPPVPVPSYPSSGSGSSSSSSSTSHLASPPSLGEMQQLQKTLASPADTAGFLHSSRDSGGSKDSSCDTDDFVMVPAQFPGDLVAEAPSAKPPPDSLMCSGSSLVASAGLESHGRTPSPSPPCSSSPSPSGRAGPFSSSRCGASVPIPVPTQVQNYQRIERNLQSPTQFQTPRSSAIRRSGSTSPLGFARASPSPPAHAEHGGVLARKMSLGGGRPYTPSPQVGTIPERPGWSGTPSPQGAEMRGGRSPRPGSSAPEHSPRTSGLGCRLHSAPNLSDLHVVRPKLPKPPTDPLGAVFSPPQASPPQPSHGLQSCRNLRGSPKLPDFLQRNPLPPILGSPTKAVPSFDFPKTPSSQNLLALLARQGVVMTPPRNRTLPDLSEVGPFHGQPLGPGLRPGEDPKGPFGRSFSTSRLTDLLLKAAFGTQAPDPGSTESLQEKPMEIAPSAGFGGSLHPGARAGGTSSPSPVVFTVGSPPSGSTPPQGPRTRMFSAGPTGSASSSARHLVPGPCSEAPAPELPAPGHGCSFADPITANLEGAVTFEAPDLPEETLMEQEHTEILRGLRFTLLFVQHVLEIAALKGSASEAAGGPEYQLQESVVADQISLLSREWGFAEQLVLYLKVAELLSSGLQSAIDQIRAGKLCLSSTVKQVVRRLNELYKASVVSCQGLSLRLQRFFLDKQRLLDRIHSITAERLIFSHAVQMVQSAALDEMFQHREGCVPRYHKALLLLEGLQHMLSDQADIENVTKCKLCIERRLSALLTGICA

Measured: effect of a mutation on the interaction

Microtubule-associated protein 1 light chain 3 beta (Homo sapiens) (from UniProt Q9GZQ8) R69A
decreasing interaction: all assays above
